Reference: US20160145321A1

Experiments:
[1] = molecular target: T1, Sym-1705 (RSV-G type A central region peptide 145-201) (Respiratory syncytial virus type A); assay: BLI (Octet Red384), biotinylated peptide on streptavidin sensor tips
[2] = molecular target: T2, Sym-1706 (RSV G central conserved domain (CCD) peptide, type A 145-184) (Respiratory syncytial virus type A); assay: as above
[3] = molecular target: T3, Sym-1788 (RSV-G type B central region peptide 145-201) (Respiratory syncytial virus type B); assay: as above
[4] = molecular target: T4, Sym-1789 (RSV-G type B central region peptide 145-184) (Respiratory syncytial virus type B); assay: as above
[5] = molecular target: T1, Sym-1705 (RSV-G type A central region …); assay: ELISA, antibody titrated on biotinylated peptide on avidin plates (FIG. 3)
[6] = molecular target: T2, Sym-1706 (RSV G central conserved …); assay: as above
[7] = molecular target: T3, Sym-1788 (RSV-G type B central region …); assay: as above
[8] = molecular target: T4, Sym-1789 (RSV-G type B central region …); assay: as above
[9] = molecular target: G protein of RSV A/Long (virus, ATCC Cat. No. VR-26) (Respiratory syncytial virus A/Long) (UniProt P20895); assay: cell-based or functional assay

| Binder | binding response (Octet) [RU] [1] | binding response (Octet) [RU] [2] | binding response (Octet) [RU] [3] | binding response (Octet) [RU] [4] | IC50 [5] | IC50 [6] | IC50 [7] | IC50 [8] | Neutralization IC50 (plaque reduction assay, Vero cells) [9] |
| --- | --- | --- | --- | --- | --- | --- | --- | --- | --- |
| CB003.1 (antibody, V domains shown) VH: QVQLVQSGPELRKPGASVTVSCKASGYTFTTYYIHWVRQAPGGGLDWMGMINTGSGVTSYAQKFQGRVAMTRDTSTSTVFMELSSLRFEDTALYYCARMYSGSWYPFDYWGQGALVTVSS VL: EIVLTQSPGTLSLSPGERATLSCRASQNINGNYLAWYQQKPGLAPRLLIYEASSRATGIPDRFSGSGSGTDFTLTISSLEPEDFGVYYCQQYGTSPFFTFGPGTKVDIK | 3.48 RU | 3.36 RU | 3.28 RU | 3.2 RU | 0.02 µg/mL | 0.02 µg/mL | 0.02 µg/mL | 0.02 µg/mL | – |
| CB010.7 (antibody, V domains shown) VH: QVQLVESGGGVVQPGRSLRLSCAASGFTFNTHGMHWVRQAPGKGLEWVAVMSYDGTKKYHADSVKGRFTISRDNSKNTLYLQMNSLRVEDTAIYYCAKVGELRSFDWLLADGTAYYYYGMDVWGQGTTVTVSS VL: not shown | 1.25 RU | 1.74 RU | 1.94 RU | 2.96 RU | 0.02 µg/mL | 0.02 µg/mL | 0.02 µg/mL | 0.02 µg/mL | – |
| CR9505 (an antibody based on 131-2G, comprising the heavy and light chain variable region of 131-2G) (antibody, from another filing, V domains shown) VH: EVQLQQSGPELVKPGTSVKISCKASGYSFTGFTMNWVKQSHGKNLEWFGLINPFNGNTGYNQKFKGKATLTVDKSSSTAFMELLSLTSEDSAVYYCARSGKSYDYEAWFTYWGQGTLVTVSA VL: DIVMTQTTLSLPVSLGNQASISCRSSQTIVHTNGNTYLEWYLQKPGQSPKLLIYKVSNRFSGVPDRFSGSGSGTDFILNISRVEAEDLGVYYCFQGSHVPFTFGSGTKLEIKR | – | – | – | – | – | – | – | – | 0.018 µg/mL |
